One substance from article PMC12582121 can be followed below.

This assay concerns the target glyceraldehyde-3-phosphate dehydrogenase (GAPDH) (human) (UniProt P04406). The assay can be described thus: mass photometry; recombinant GAPDH without RNA; 100 nM GAPDH in binding buffer (10 mM Tris-HCl pH 8.0, 50 mM KCl, 2 mM DTT, 0.5 mM EDTA), 25 min at room temperature, diluted 1:10 for measurement; TwoMP mass photometer; monomer and tetramer peaks seen.

Sequence of glyceraldehyde-3-phosphate dehydrogenase (GAPDH), P04406 1-335 (enzyme; other documents disagree on this pair) (P04406 whole entry): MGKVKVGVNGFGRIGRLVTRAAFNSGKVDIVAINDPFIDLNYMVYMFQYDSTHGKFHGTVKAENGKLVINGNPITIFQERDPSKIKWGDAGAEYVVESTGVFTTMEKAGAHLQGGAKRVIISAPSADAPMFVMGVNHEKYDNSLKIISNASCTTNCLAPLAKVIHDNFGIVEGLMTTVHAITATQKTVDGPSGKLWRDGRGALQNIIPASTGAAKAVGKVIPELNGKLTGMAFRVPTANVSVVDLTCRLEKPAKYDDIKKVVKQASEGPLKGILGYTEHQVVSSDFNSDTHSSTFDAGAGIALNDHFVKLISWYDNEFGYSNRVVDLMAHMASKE

Broadly, the stoichiometry N is a count of units in the complex or per binding partner. Regarding “glyceraldehyde-3-phosphate dehydrogenase (GAPDH), P04406 1-335 (enzyme; other documents disagree on this pair)”, the stoichiometry N was 4.
